Experimental findings from article doi:10.1101/2025.11.17.688653 are described below.

The target in the test is mouse PIEZO1-R2482H (mouse) (UniProt E2JF22). Briefly: cryo-EM structure.

As usually defined, the stoichiometry N is a count of units in the complex or per binding partner. mouse PIEZO1-R2482H, E2JF22 1-2547: the stoichiometry N was determined as 3.
